Values belong to the molecule of their own block, whether it stands above or below them.
What was measured:
[1] = molecular target: human CD3 (soluble human CD3ε chain) (Homo sapiens, UniProt P07766); experiment: Affinity for human CD3 by surface plasmon resonance (Biacore T200); type: binding; conditions: for Kd: soluble human CD3ε chain, Table 12
Procedure: (§1) The activity to bind human CD3 when using hCE115HA (SEQ ID NO: 52) as the H chain variable region and L0000 (SEQ ID NO: 53) as the L-chain variable region was evaluated. This was performed using the molecular form of a single-arm antibody having a single Fab at the Fc region of a human IgG1 heterodimerized by the knobs-into-hole technique.
(§2) The affinity and binding rate constants of an anti-CD3 antibody for an antigen were measured by the single-cycle kinetics method of a surface plasmon resonance assay using Biacore™-T200 (GE Healthcare Japan). HBS-EP+(GE Healthcare Japan) was used for the running buffer, and an amine coupling kit (GE Healthcare Japan) was used to covalently bind human CD3 to the CM4 chip (carboxymethyl dextran-coated chip). The anti-CD3 antibody used as the analyte was prepared at 5 and […] using HBS-EP+. Measurements were carried out by first injecting each of the 5- and 20-g/mL anti-CD3 antibody solutions for three minutes continuously at a flow rate of 20 L/min to allow reaction to take place. Then, the solution was switched to HBS-EP+ and the dissociation phase was measured for 3 minutes. After completion of the dissociation phase measurement, the sensor chip was regenerated by washing with 10 mM Gly-HCl at pH 1.5. Measurement at the concentration of 0 was carried out by performing each of the three-minute HBS-EP+ injections twice successively to allow reaction to take place, and then switching to HBS-EP+ to measure the dissociation phase for 3 minutes. After completion of the dissociation phase measurement, the sensor chip was regenerated by washing with 10 mM Gly-HCl at pH 1.5. A data analysis software exclusively for Biacore, Biacore T200 Evaluation Software Version 1.0, was used to perform kinetic analyses to calculate the binding rate constant (ka), dissociation rate constant (kd), and the rate constant ratio from the obtained sensorgrams.
(§3) CDR and FR were determined according to the Kabat definition (Kabat numbering).
First, point mutations were introduced into FR1, FR2, FR3, CDR1, CDR2, and CDR3 of the humanized anti-human CD3ε chain antibody sequence produced in Reference Example 2, hCE115HA-ERY27_HE (SEQ ID NO: 55), to prepare modified antibodies. Next, the affinity of these modified antibodies for the soluble human CD3ε chain was determined.

[2] = molecular target: T1, soluble human CD3 epsilon chain (human, UniProt P07766 23-126); experiment: SPR, human CD3 on the chip
T1 construct: also called CD3ε
T1 sequence (P07766 23-126 limits assumed): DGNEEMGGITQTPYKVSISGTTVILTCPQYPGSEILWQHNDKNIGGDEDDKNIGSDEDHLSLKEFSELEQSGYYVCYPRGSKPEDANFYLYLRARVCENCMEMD
Procedure: as §1, §2

[3] = molecular target: human GPC3 (Homo sapiens, UniProt P51654); experiment: Affinity for human GPC3 by surface plasmon resonance (Biacore T200); type: binding; conditions: single-arm antibody; multi-cycle kinetics
human GPC3, sequence (P51654 25-563 limits assumed): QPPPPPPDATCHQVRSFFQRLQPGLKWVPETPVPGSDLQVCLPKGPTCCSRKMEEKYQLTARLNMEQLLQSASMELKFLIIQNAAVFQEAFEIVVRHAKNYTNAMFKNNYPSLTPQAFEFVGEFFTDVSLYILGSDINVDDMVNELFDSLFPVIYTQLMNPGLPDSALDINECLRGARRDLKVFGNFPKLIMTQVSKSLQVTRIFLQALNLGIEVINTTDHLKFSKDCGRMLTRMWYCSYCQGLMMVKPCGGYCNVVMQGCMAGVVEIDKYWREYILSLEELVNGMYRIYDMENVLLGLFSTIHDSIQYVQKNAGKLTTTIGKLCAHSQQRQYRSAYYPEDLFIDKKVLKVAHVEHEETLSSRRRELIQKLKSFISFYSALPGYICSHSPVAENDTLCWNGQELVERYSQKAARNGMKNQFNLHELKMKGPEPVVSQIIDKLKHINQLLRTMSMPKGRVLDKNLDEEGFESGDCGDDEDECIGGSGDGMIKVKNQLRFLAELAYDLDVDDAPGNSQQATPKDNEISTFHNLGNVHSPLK
Procedure: The activity to bind human GPC3 when using GL4 (SEQ ID NO: 41) and L0000 (SEQ ID NO: 53) as the L-chain variable regions was evaluated. This was performed using the molecular form of a single-arm antibody having a single Fab at the Fc region of a human IgG1 heterodimerized by the knobs-into-hole technique. H0000 (SEQ ID NO: 40) was used for the anti-GPC3 antibody H-chain variable region.
The affinity and binding rate constants of an anti-GPC3 antibody for an antigen were measured by the multi-cycle kinetics method of a surface plasmon resonance assay using Biacore™-T200 (GE Healthcare Japan). HBS-EP+(GE Healthcare Japan) was used for the running buffer, and an amine coupling kit (GE Healthcare Japan) was used to covalently bind Protein A/G to the CM5 chip (carboxymethyl dextran-coated chip). Each anti-GPC3 antibody was prepared so that approximately 100 RU will be captured by Protein A/G. Human GPC3 used as the analyte was prepared at 8, 16, 32, 64, and 128 nM using HBS-EP+. Measurements were carried out by first allowing Protein A/G to capture the antibody solution, and then injecting the human GPC3 solution at a flow rate of […] for three minutes to allow reaction to take place. Then, the solution was switched to HBS-EP+ and the dissociation phase was measured for 15 minutes. After completion of the dissociation phase measurement, the sensor chip was regenerated by washing with 10 mM Gly-HCl at pH 1.5. Measurement at the concentration of 0 was similarly carried out by allowing Protein A/G to capture the antibody solution, performing a three-minute HBS-EP+ injection to allow reaction to take place, and then switching to HBS-EP+ to measure the dissociation phase for 15 minutes. […]
as §3
First, point mutations were introduced into CDR1, CDR2, and CDR3 of the anti-human GPC3 bispecific antibody sequence produced in Reference Example 2, H0000-ERY27_HK (SEQ ID NO: 54), to prepare modified antibodies. Next, the affinity of these modified antibodies for soluble human GPC3 was determined.

[4] = single-arm antibody, single-cycle kinetics

human CD3 (soluble human CD3ε chain), sequence (P07766 23-126 limits assumed): as the sequence (P07766 23-126 limits assumed) above

Kd [1]: 42.8 nM
B1: CE115HA122-E22Hh//-Hi-Kn010G3/L0000-k0: modified anti-CD3 antibody (antibody)
heavy: QVQLVESGGGVVQPGRSLRLSCAASGFTFSNAWMHWVRQAPGKGLEWVANIKAKSNNYATYYAESVKGRFTISRDDSKNSLYLQMNSLKTEDTAVYYCRYVHYGAYYGVDAWGQGTTVTVSSASTKGPSVFPLAPSSKSTSGGTAALGCLVKDYFPEPVTVSWNSGALTSGVHTFPAVLQSSGLYSLSSVVTVPSSSLGTQTYICNVNHKPSNTKVDKKVEPKSCDKTHTCPPCPAPEAAGGPSVFLFPPKPKDTLMISRTPEVTCVVVDVSHEDPEVKFNWYVDGVEVHNAKTKPREEQYASTYRVVSVLTVLHQDWLNGKEYKCKVSNKALPAPIEKTISKAKGQPREPQVYTLPPSRCELTKNQVSLSCAVKGFYPSDIAVEWESNGQPENNYKTTPPVLDSDGSFFLVSKLTVDKSRWQQGNVFSCSVMHEALHNHYTQKSLSLSPDYKDDDDK
light: DIVMTQSPLSLPVTPGEPASISCRSSQSLVHSNRNTYLHWYQQKPGQAPRLLIYKVSNRFSGVPDRFSGSGSGTDFTLKISRVEAEDVGVYYCGQGTQVPYTFGQGTKLEIKRTVAAPSVFIFPPSDEQLKSGTASVVCLLNNFYPREAKVQWKVDNALQSGNSQESVTEQDSKDSTYSLSSTLTLSKADYEKHKVYACEVTHQGLSSPVTKSFNRGEC

Kd [1]: 16.9 nM
B2: antibody-6: anti-human CD3ε chain and anti-human GPC3 bispecific antibody (antibody)
heavy: QVQLVESGGGVVQPGRSLRLSCAASGFTFSNAWMHWVRQAPGKGLEWVANIKAKSNNYATYYAESVKGRFTISRDDSKNSLYLQMNSLKTEDTAVYYCRYVHYGAYYGVDAWGQGTTVTVSSASTKGPSVFPLAPSSKSTSGGTAALGCLVKDYFPEPVTVSWNSGALTSGVHTFPAVLQSSGLYSLSSVVTVPSSSLGTQTYICNVNHKPSNTKVDKKVEPKSCDKTHTCPPCPAPEAAGGPSVFLFPPKPKDTLMISRTPEVTCVVVDVSHEDPEVKFNWYVDGVEVHNAKTKPREEQYASTYRVVSVLTVLHQDWLNGKEYKCKVSNKALPAPIEKTISKAKGQPREPQVYTLPPSRCELTKNQVSLSCAVKGFYPSDIAVEWESNGQPENNYKTTPPVLDSDGSFFLVSKLTVDKSRWQQGNVFSCSVMHEALHNHYTQKSLSLSPDYKDDDDK
light: DIVMTQSPLSLPVTPGEPASISCRSSQSLVHSNRNTYLHWYQQKPGQAPRLLIYKVSNRFSGVPDRFSGSGSGTDFTLKISRVEAEDVGVYYCGQGTQVPYTFGQGTKLEIKRTVAAPSVFIFPPSDEQLKSGTASVVCLLNNFYPREAKVQWKVDNALQSGNSQESVTEQDSKDSTYSLSSTLTLSKADYEKHKVYACEVTHQGLSSPVTKSFNRGEC
chain 1: DIVMTQSPLSLPVTPGEPASISCRSSQSLVHSNRNTYLHWYQQKPGQAPRLLIYKVSNRFSGVPDRFSGSGSGTDFTLKISRVEAEDVGVYYCSQNTHVPPTFGQGTKLEIKSSASTKGPSVFPLAPSSKSTSGGTAALGCLVKDYFPEPVTVSWNSGALTSGVHTFPAVLQSSGLYSLSSVVTVPSSSLGTQTYICNVNHKPSNTKVDKKVEPKSCDKTHTCPPCPAPEAAGGPSVFLFPPKPKDTLMISRTPEVTCVVVDVSHEDPEVKFNWYVDGVEVHNAKTKPREEQYASTYRVVSVLTVLHQDWLNGKEYKCKVSNKALPAPIEKTISKAKGQPREPQVCTLPPSRDELTKNQVSLWCLVKGFYPSDIAVEWESNGQPENNYKTTPPVLDSDGSFFLYSKLTVDKSRWQQGNVFSCSVMHEALHNHYTQKSLSLSPHHHHHHHH
chain 2: QVQLVQSGAEVKKPGASVKVSCKASGYTFTDYEMHWIRQPPGQGLEWIGAIDPKTGDTAYSQKFKGRVTLTADKSTSTAYMELSSLTSEDTAVYYCTRFYSYTYWGQGTLVTVSSASVAAPSVFIFPPSDEQLKSGTASVVCLLNNFYPREAKVQWKVDNALQSGNSQESVTEQDSKDSTYSLSSTLTLSKADYEKHKVYACEVTHQGLSSPVTKSFNRGEC

Kd [2]: 100 nM
koff [2]: 0.006 s⁻¹
kon [2]: 59000 M⁻¹ s⁻¹
Affinity for human CD3 ka [1, 4]: 59000 M⁻¹ s⁻¹
Affinity for human CD3 kd [1, 4]: 0.006 s⁻¹
B3: rCE115H/rCE115L single-arm antibody (antibody, human IgG1, V domains shown)
VH: EVQLVETGGSLVQPGKSLKLTCATSGFTFSNAWMHWVRQSPEKQLEWVAQIKAKSNNYATYYAESVKGRFTISRDDSKSNIYLQMNSLKEEDTAVYYCRYVHYGAYYGVDAWGQGTSVTVSS
VL: DVVMTQTPVSMSVSLGGQVSISCRSSQSLVHNNGNTYVSWYIQKPSQSPQLLIYKVSNRFSGISDRFSGSGSGTDFTLKISRVEPDDLGVYYCGQGTQDPYTFGAGTKLELK
notes: single Fab on human IgG1 Fc heterodimerized by knobs-into-hole; also called rCE116H/rCE115L

Affinity for human GPC3 ka [3]: 430000 M⁻¹ s⁻¹
Affinity for human GPC3 kd [3]: 0.0018 s⁻¹
B4: H0000/GL4: single-arm anti-GPC3 antibody, H0000 (SEQ ID NO: 40) with GL4 (SEQ ID NO: 41) (antibody, V domains shown)
VH: QVQLVQSGAEVKKPGASVKVSCKASGYTFTDYEMHWIRQPPGQGLEWIGAIDPKTGDTAYSQKFKGRVTLTADKSTSTAYMELSSLTSEDTAVYYCTRFYSYTYWGQGTLVTVSS
VL: DIVMTQSPLSLPVTPGEPASISCRSSQSLVHSNRNTYLHWYQQKPGQAPRLLIYKVSNRFSGVPDRFSGSGSGTDFTLKISRVEAEDVGVYYCSQNTHVPPTFGQGTKLEIK
modifications: An artificially generated sequence

Source: patent US20250066503A1, “CELL INJURY INDUCING THERAPEUTIC DRUG FOR USE IN CANCER THERAPY” (CHUGAI SEIYAKU KABUSHIKI KAISHA, priority 2016, published 2025)
